Changes are numbered by the printed parent chain. Numbers in names are those of the source.
B1: S009-F2.21.4 (antibody, human IgG1, kappa, V domains shown)
VH: EVQLQQSGPELVKPGASVKIPCKASGYTFTDYNMDWVKQSHGKSLEWIGDINPNNGGSIYNQRFKGKATLTVDKSSSTAYMELRSLTSEDSAVYYCARRAYYSTGYFDVWGTGTTVTVSS
VL: QIVLTQSPALMSASPGEKVTITCSASSSISYMHWFQQKPGTSPKLWIYSTSTLASGVPARFSGSGSGTSYSLTISRMEAEDTATYYCQQRSSYPPTFGGGTKLEIKR
notes: human-murine chimeric antibody, human IgG1/kappa constant regions
B2: S009-F2.23.12 (antibody, human IgG1, kappa, V domains shown)
VH: QVQLQQPGTELVKPGASVKLSCKASGYTFTNYWMHWVKQRPGQGLEWIGNINPSNGGPYYNERFRSKATLTVDKSSSTAYMQLSSLTSEDSAVYYCARPYYGSSYGYFDYWGQGTTLTVSS
VL: DIQMTQSPSSLSASLGGKVTITCKASQDINKYIAWYQHKPGKGPRLLIHYTSELQPGIPSRFSGNGSGRDYSFSISNLEPEDIATYYCLQYANPLRTFGGGTKLEIKR
notes: as for B1
B3: S009-F2.39.3 (antibody, human IgG1, kappa, V domains shown)
VH: QVQLQQPGTELVKPGASVKLSCKASGYTFTNYWMHWVKQRPGQGLEWIGNINPSSGDSYYNERFMSKAKMTVDKSSSTAYMQLSSLTSEDSAVYYCARSGGLWLAFWGPGTLVTVSA
VL: DIVMTQSPSSLAMSVGQKVTMSCKSSQTLLNSVSQNNYLAWYQQKPGQSPTLLVYFASTRESGVPDRFIGGGSGTDFTLTISSVQAEDLADYFCQQHYRTPYTFGGGTNLEIKR
notes: as for B1
B4: S009-F2-56.12 (antibody, human IgG1, kappa, V domains shown)
VH: DVQLQESGPGMVKPSQSLSLTCTVTGYSITSGYDWHWIRHFPGNKLEWMGYISYSGSTNYNPSLKSRISITHDTSKNHFFLKLKSVTTEDTATYYCARGTGPDYWGQGTTLTVSS
VL: DIVMTQSQKFMSTSVGDRVSITCKASQNVRTAVAWYQQKPGQSPKALIHLPSNRHTGVPDRFTGSGSGTDFTLTISNVQSEDLADYFCLQHWNYPLTFGGGTKLEIKR
notes: as for B1
B5: F7.33.24-H1 (scFv, not shown: small tags and cut ends)
scFv: EVQLVQSGAEVKKPGASVKVSCKASGYTFTSYWMHWVRQAPGQRLEWMGNVNPSNGGSNYNEKFKNRVTITVDKSASTAYMELSSLRSEDTAVYYCAPHYIGSRPGFAYWGQGTLVTVSSGGGGSGGGGSGGGGSDIVMTQSPDSLAVSLGERATINCKASQNVGTNIAWYQQKPGQSPKALIYSASYRYSGVPDRFSGSGSGTDFTLTISSLQAEDVAVYYCQQYNSYPLTFGGGTKVEIK
notes: also called S009-F7.33.24 humanized antibody VH1 + VL1
B6: F7.33.24-H4 (scFv, not shown: small tags and cut ends)
scFv: B5 scFv with N55S
notes: also called S009-F7.33.24 humanized antibody VH1a + VL1
B7: F7.33.24-H7 (scFv, not shown: small tags and cut ends)
scFv: B5 scFv with R44G
notes: also called S009-F7.33.24 humanized antibody VH2 + VL1
B8: Tab111 (scFv, not shown: small tags and cut ends)
scFv: DVVMTQTPASVSEPVGGTVTIKCQASQRISSYLSWYQQKPGQRPKLLIFGASTLASGVPSRFKGSGSGTEYTLTISDLECADAATYYCQSYAYFDSNNWHAFGGGTEVVVGGGGSGGGGSGGGGSQQQLEESGGGLVKPEGSLTLTCKASGFDLGFYFYACWVRQAPGKGLEWIACIYTAGSGSTYYASWAKGRFTISKASSTTVTLQMTSLAAADTATYFCARSTANTRSTYYLNLWGPGTLVTVSS
notes: also called YP218 VL-(G4S)3-VH-his antibody; positive control
B9: Tab110 (scFv, not shown: small tags and cut ends)
scFv: QQQLEESGGGLVKPEGSLTLTCKASGFDLGFYFYACWVRQAPGKGLEWIACIYTAGSGSTYYASWAKGRFTISKASSTTVTLQMTSLAAADTATYFCARSTANTRSTYYLNLWGPGTLVTVSSGGGGSGGGGSGGGGSDVVMTQTPASVSEPVGGTVTIKCQASQRISSYLSWYQQKPGQRPKLLIFGASTLASGVPSRFKGSGSGTEYTLTISDLECADAATYYCQSYAYFDSNNWHAFGGGTEVVV
notes: also called YP218 VH-(G4S)3-VL-his antibody; positive control

What was measured:
[1] = biological target: T1, human MSLN protein endogenously expressed on OVCAR3 tumor cells (human, UniProt Q13421 296-598); test: FACS on OVCAR3 cells
T1 construct: whole, on cells; Endogenous target on OVCAR3 cells; kept apart from the recombinant full-length construct; also called mesothelin
T1 sequence (Q13421 other isoform, or with tags, fused parts or gaps): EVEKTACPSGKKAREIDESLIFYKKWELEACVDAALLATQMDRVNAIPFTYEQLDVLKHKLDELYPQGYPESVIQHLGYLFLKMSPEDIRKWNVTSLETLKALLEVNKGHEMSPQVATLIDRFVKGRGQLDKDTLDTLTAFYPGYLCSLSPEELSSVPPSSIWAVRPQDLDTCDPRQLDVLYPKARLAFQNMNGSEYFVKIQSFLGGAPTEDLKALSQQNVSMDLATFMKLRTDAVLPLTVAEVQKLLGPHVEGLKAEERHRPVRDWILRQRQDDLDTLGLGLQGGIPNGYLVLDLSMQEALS

[2] = biological target: T2, human MSLN-R3 protein (Met487-Ser606 of NCBI AAH09272.1) expressed on HEK293T-hMSLN-R3 cells (human, UniProt Q13421 487-606); test: FACS on HEK293T-hMSLN-R3 cells
T2 construct: also called Region3
T2 sequence (Q13421 495-614): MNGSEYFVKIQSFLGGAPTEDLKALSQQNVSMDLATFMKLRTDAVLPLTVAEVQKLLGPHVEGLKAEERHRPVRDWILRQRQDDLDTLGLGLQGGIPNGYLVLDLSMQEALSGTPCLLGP

[3] = biological target: T3, human MSLN full-length protein (NCBI: AAH09272.1) expressed on HEK293T-hMSLN-B8 cells (human, UniProt Q13421 296-598); test: FACS on HEK293T-hMSLN-B8 cells
T3 construct: Whole encoded precursor
T3 sequence (Q13421 other isoform, or with tags, fused parts or gaps limits assumed): as the sequence (Q13421 other isoform, or with tags, fused parts or gaps) above, with R14P counted along it

[4] = biological target: T4, monkey MSLN full-length protein (NCBI: XP_028696439.1) expressed on HEK293T-monkey MSLN cells (monkey); test: FACS on HEK293T-monkey MSLN cells
T4 construct: Whole encoded precursor
T4 chain: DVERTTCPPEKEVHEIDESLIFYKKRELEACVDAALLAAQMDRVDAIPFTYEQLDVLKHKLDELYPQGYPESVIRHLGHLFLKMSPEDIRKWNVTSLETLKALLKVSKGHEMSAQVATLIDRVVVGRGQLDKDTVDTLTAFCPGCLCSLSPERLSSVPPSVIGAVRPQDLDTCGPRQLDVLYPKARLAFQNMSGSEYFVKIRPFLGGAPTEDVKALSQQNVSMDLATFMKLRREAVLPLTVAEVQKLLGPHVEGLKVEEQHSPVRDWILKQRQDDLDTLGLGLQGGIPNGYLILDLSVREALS

human MSLN-R3 protein [5] = biological target: T5, human MSLN-R3 protein (human, UniProt Q13421 487-598); test: ELISA on coated antigen, antibody 0.1 nM
T5 construct: also called hMSLN-R3
T5 sequence (Q13421 495-606, form in doubt): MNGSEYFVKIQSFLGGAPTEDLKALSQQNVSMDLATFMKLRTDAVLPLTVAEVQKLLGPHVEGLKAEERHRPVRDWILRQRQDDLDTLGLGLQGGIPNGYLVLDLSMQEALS

human MSLN-R3 protein [6] = biological target: T5, human MSLN-R3 protein; test: ELISA on coated antigen, antibody 100 nM
[7] = biological target: T6, human MSLN-hFc protein (Acro, Cat. No. MSN-H5253) (human, UniProt Q13421 296-580); test: ELISA on coated antigen, antibody 0.1 nM
T6 construct: the method names the coated protein as human MSLN-hFc (Acro); also called human MSLN full-length protein
T6 sequence (Q13421 other isoform, or with tags, fused parts or gaps limits assumed): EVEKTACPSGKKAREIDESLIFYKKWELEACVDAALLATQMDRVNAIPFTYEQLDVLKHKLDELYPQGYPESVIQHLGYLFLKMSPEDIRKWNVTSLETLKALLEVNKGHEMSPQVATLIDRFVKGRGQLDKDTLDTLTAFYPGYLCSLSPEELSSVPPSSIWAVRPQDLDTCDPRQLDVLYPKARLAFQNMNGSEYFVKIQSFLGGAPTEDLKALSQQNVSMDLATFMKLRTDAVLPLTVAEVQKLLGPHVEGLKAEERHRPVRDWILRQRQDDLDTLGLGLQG

[8] = biological target: T6, human MSLN-hFc protein (Acro, Cat. No. …); test: ELISA on coated antigen, antibody 0.001 nM
[9] = biological target: T6, human MSLN-hFc protein (Acro, Cat. No. …); test: ELISA on coated antigen, antibody 10 nM
human MSLN-R3 protein [10] = biological target: T5, human MSLN-R3 protein; test: ELISA on coated antigen, antibody 10 nM
[11] = biological target: T6, human MSLN-hFc protein (Acro, Cat. No. …); test: ELISA on coated antigen, antibody 1 nM
human MSLN-R3 protein [12] = biological target: T5, human MSLN-R3 protein; test: ELISA on coated antigen, antibody 0.01 nM
[13] = biological target: T6, human MSLN-hFc protein (Acro, Cat. No. …); test: ELISA on coated antigen, antibody 0.01 nM
human MSLN-R3 protein [14] = biological target: T5, human MSLN-R3 protein; test: ELISA on coated antigen, antibody 1 nM
human MSLN-R3 protein [15] = biological target: T5, human MSLN-R3 protein; test: ELISA on coated antigen, antibody 0.0001 nM
[16] = biological target: T6, human MSLN-hFc protein (Acro, Cat. No. …); test: ELISA on coated antigen, antibody 100 nM
[17] = biological target: T6, human MSLN-hFc protein (Acro, Cat. No. …); test: ELISA on coated antigen, antibody 0.0001 nM
human MSLN-R3 protein [18] = biological target: T5, human MSLN-R3 protein; test: ELISA on coated antigen, antibody 0.001 nM
human MSLN-R3 protein [19] = biological target: T5, human MSLN-R3 protein; test: ELISA on coated antigen, antibody 0.001 nM; remark: listed apart in the source
human MSLN-R3 protein [20] = biological target: T5, human MSLN-R3 protein; test: ELISA on coated antigen, antibody 0.0001 nM; remark: listed apart in the source
human MSLN-R3 protein [21] = biological target: T5, human MSLN-R3 protein; test: ELISA on coated antigen, antibody 1 nM; remark: listed apart in the source
human MSLN-R3 protein [22] = biological target: T5, human MSLN-R3 protein; test: ELISA on coated antigen, antibody 100 nM; remark: listed apart in the source
human MSLN-R3 protein [23] = biological target: T5, human MSLN-R3 protein; test: ELISA on coated antigen, antibody 0.01 nM; remark: listed apart in the source
human MSLN-R3 protein [24] = biological target: T5, human MSLN-R3 protein; test: ELISA on coated antigen, antibody 10 nM; remark: listed apart in the source
human MSLN-R3 protein [25] = biological target: T5, human MSLN-R3 protein; test: ELISA on coated antigen, antibody 0.1 nM; remark: listed apart in the source

Binder	Maximum mean fluorescence intensity [1]	Maximum mean fluorescence intensity [2]	EC50 [3]	Maximum mean fluorescence intensity [3]	EC50 [4]	Maximum mean fluorescence intensity [4]	EC50 [1]	OD450 (human MSLN-R3 protein [5])	OD450 (human MSLN-R3 protein [6])	OD450 [7]	OD450 [8]	OD450 [9]	OD450 (human MSLN-R3 protein [10])	OD450 [11]	OD450 (human MSLN-R3 protein [12])	OD450 [13]	OD450 (human MSLN-R3 protein [14])	OD450 (human MSLN-R3 protein [15])	OD450 [16]	OD450 (human MSLN-R3 protein [18])	also measured
B1	5260	348	~0.82 nM	91800	0.44 nM	20100	–	–	–	–	–	–	–	–	–	–	–	–	–	–	binding result [2]: no binding
B2	14600	3880	2.39 nM	144000	~0.83 nM	20400	1 nM	–	–	–	–	–	–	–	–	–	–	–	–	–	EC50 [2]: 0.5 nM
B3	14600	3290	5.79 nM	138000	4.18 nM	20800	5.52 nM	–	–	–	–	–	–	–	–	–	–	–	–	–	EC50 [2]: 4.19 nM
B4	6140	94	~0.79 nM	67000	–	95	0.54 nM	–	–	–	–	–	–	–	–	–	–	–	–	–	binding result [2]: no binding; binding result [4]: no binding
B5	–	–	–	–	–	–	–	0.08 OD450	1.93 OD450	0.1 OD450	0.04 OD450	2.53 OD450	1.61 OD450	0.59 OD450	0.04 OD450	0.05 OD450	0.52 OD450	0.04 OD450	2.9 OD450	0.04 OD450	OD450 [17]: 0.05 OD450
B6	–	–	–	–	–	–	–	0.07 OD450	1.95 OD450	0.08 OD450	0.05 OD450	2.21 OD450	1.64 OD450	0.45 OD450	0.04 OD450	0.07 OD450	0.45 OD450	0.04 OD450	2.95 OD450	0.04 OD450	OD450 [17]: 0.05 OD450
B7	–	–	–	–	–	–	–	0.06 OD450	1.95 OD450	0.1 OD450	0.06 OD450	2.32 OD450	1.52 OD450	0.48 OD450	0.04 OD450	0.05 OD450	0.33 OD450	0.04 OD450	2.79 OD450	0.04 OD450	OD450 [17]: 0.05 OD450
B8	–	–	–	–	–	–	–	0.09 OD450	2.1 OD450	–	–	–	1.88 OD450	–	0.05 OD450	–	0.51 OD450	0.05 OD450	–	0.05 OD450	OD450 (human MSLN-R3 protein [19]): 0.05 OD450; OD450 (human MSLN-R3 protein [20]): 0.05 OD450; OD450 (human MSLN-R3 protein [21]): 0.51 OD450; OD450 (human MSLN-R3 protein [22]): 2.1 OD450; OD450 (human MSLN-R3 protein [23]): 0.05 OD450; OD450 (human MSLN-R3 protein [24]): 1.88 OD450; OD450 (human MSLN-R3 protein [25]): 0.09 OD450
B9	–	–	–	–	–	–	–	0.04 OD450	0.98 OD450	–	–	–	0.78 OD450	–	0.04 OD450	–	0.06 OD450	0.05 OD450	–	0.04 OD450	OD450 (human MSLN-R3 protein [19]): 0.04 OD450; OD450 (human MSLN-R3 protein [20]): 0.05 OD450; OD450 (human MSLN-R3 protein [21]): 0.06 OD450; OD450 (human MSLN-R3 protein [22]): 0.98 OD450; OD450 (human MSLN-R3 protein [23]): 0.04 OD450; OD450 (human MSLN-R3 protein [24]): 0.78 OD450; OD450 (human MSLN-R3 protein [25]): 0.04 OD450
